Test results taken from PMC3958441, “Isl1 and Pou4f2 Form a Complex to Regulate Target Genes in Developing Retinal Ganglion Cells” (PLoS ONE, 2014).

What was measured:
Pou4f2 (Brn3b);Isl1 [1] = biological target: T1, Pou4f2 (Brn3b);Isl1 (mouse;mouse, UniProt Q63934;P61372 1-411;1-349, |); test: EMSA; EMSA: 20 mM Tris-HCl pH 7.5, 50 mM NaCl, 10 mM DTT, 1 mM EDTA, 5% glycerol, 200 ng dI/dC, 200 ng each protein in 20 ul, 4 C, 30 min; 8% PAGE, 1x TBE, 4 C; conditions: protein: recombinant;recombinant; tags: His (C-terminal, pET-28a);His (C-terminal, pET-28a); copies: 1;1; (radiolabel, Klenow fill-in); 5' overhang 1 nt at both ends before fill-in
T1 sequence 1: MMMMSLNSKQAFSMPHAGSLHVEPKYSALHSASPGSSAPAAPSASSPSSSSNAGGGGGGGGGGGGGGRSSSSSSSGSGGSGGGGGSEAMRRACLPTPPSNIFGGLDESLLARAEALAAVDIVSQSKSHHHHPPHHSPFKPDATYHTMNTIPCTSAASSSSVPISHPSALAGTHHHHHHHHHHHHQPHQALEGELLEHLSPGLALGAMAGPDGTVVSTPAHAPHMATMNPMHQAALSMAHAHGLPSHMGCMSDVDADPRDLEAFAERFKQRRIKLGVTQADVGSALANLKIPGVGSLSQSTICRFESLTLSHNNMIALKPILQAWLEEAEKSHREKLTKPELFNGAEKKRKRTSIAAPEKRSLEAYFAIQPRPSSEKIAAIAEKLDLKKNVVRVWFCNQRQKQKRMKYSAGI
T1 sequence 2: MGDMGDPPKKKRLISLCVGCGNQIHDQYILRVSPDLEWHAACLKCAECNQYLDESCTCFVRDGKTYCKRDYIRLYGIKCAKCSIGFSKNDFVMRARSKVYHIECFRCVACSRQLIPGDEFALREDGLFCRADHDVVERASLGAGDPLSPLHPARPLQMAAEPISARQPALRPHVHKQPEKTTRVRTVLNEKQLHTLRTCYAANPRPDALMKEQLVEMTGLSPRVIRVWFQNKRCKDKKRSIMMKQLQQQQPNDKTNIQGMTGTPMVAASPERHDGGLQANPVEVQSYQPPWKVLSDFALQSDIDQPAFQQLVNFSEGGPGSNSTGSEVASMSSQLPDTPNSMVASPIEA

Pou4f2D5;Isl1 [2] = biological target: T2, Pou4f2D5;Isl1 (mouse;mouse, UniProt Q63934;P61372 125-411;1-349, |); test: EMSA; ternary complex; EMSA: 20 mM Tris-HCl pH 7.5, 50 mM NaCl, 10 mM DTT, 1 mM EDTA, 5% glycerol, 200 ng dI/dC, 200 ng each protein in 20 ul, 4 C, 30 min; 8% PAGE, 1x TBE, 4 C; conditions: protein: recombinant;recombinant, tags: His (C-terminal);His (C-terminal, pET-28a), copies: 1;1
T2 sequence 1: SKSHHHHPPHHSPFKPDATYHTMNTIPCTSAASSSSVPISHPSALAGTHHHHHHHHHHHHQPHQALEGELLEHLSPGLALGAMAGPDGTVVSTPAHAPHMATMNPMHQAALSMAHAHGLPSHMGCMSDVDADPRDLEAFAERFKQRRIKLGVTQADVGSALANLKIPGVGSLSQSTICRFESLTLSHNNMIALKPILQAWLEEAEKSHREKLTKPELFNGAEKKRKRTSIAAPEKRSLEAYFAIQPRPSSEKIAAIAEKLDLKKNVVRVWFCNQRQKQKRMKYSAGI
T2 sequence 2: T1 sequence 2

Pou4f2D5;Isl1 [3] = biological target: T2, Pou4f2D5;Isl1; test: EMSA; EMSA: 20 mM Tris-HCl pH 7.5, 50 mM NaCl, 10 mM DTT, 1 mM EDTA, 5% glycerol, 200 ng dI/dC, 200 ng each protein in 20 ul, 4 C, 30 min; 8% PAGE, 1x TBE, 4 C; conditions: protein: recombinant;recombinant, tags: His (C-terminal);His (C-terminal, pET-28a), copies: 1;1
Isl1D4;Pou4f2 (Brn3b) = biological target: T3, Isl1D4;Pou4f2 (Brn3b) (mouse;mouse, UniProt P61372;Q63934 146-349;1-411, |); test: EMSA; ternary complex; EMSA: 20 mM Tris-HCl pH 7.5, 50 mM NaCl, 10 mM DTT, 1 mM EDTA, 5% glycerol, 200 ng dI/dC, 200 ng each protein in 20 ul, 4 C, 30 min; 8% PAGE, 1x TBE, 4 C; conditions: protein: recombinant;recombinant; tags: His (C-terminal);His (C-terminal, pET-28a); copies: 1;1; (radiolabel, Klenow fill-in); 5' overhang 1 nt at both ends before fill-in
T3 sequence 1: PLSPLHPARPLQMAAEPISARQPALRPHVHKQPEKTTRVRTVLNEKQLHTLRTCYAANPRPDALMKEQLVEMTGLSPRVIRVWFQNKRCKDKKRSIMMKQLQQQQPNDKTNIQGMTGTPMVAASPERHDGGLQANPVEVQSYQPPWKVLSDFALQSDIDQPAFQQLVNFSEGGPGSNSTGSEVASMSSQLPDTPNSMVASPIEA
T3 sequence 2: T1 sequence 1

Pou4f2 (Brn3b);Isl1 [4] = biological target: T1, Pou4f2 (Brn3b);Isl1; test: as above; conditions: protein: recombinant;recombinant; tags: His (C-terminal, pET-28a);His (C-terminal, pET-28a); copies: 1;1; (radiolabel, Klenow fill-in); 5' overhang 1 nt at both ends before fill-in
Pou4f2D4;Isl1 = biological target: T4, Pou4f2D4;Isl1 (mouse;mouse, UniProt Q63934;P61372 169-411;1-349, |); test: as above; conditions: protein: recombinant;recombinant; tags: His (C-terminal);His (C-terminal, pET-28a); copies: 1;1; (radiolabel, Klenow fill-in); 5' overhang 1 nt at both ends before fill-in
T4 sequence 1: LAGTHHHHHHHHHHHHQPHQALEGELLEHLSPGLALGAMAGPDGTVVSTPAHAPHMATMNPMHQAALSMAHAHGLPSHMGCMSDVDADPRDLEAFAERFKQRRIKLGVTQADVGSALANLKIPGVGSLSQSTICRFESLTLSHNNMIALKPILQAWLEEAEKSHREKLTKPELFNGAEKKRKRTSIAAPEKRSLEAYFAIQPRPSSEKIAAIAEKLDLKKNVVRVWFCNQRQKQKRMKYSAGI
T4 sequence 2: T1 sequence 2

Isl1D5;Pou4f2 (Brn3b) = biological target: T5, Isl1D5;Pou4f2 (Brn3b) (mouse;mouse, UniProt P61372;Q63934 74-349;1-411, |); test: as above; conditions: protein: recombinant;recombinant; tags: His (C-terminal);His (C-terminal, pET-28a); copies: 1;1; (radiolabel, Klenow fill-in); 5' overhang 1 nt at both ends before fill-in
T5 sequence 1: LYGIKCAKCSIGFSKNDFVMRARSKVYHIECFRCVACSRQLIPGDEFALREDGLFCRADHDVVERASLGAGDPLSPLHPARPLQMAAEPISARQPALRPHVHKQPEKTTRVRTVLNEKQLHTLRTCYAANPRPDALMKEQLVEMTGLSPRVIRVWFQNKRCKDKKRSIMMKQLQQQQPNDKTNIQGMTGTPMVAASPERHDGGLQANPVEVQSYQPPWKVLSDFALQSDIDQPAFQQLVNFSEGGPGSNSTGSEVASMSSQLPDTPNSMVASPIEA
T5 sequence 2: T1 sequence 1

Isl1D3;Pou4f2 (Brn3b) = biological target: T6, Isl1D3;Pou4f2 (Brn3b) (mouse;mouse, UniProt P61372;Q63934 170-349;1-411, |); test: as above; conditions: protein: recombinant;recombinant; tags: His (C-terminal);His (C-terminal, pET-28a); copies: 1;1; (radiolabel, Klenow fill-in); 5' overhang 1 nt at both ends before fill-in
T6 sequence 1: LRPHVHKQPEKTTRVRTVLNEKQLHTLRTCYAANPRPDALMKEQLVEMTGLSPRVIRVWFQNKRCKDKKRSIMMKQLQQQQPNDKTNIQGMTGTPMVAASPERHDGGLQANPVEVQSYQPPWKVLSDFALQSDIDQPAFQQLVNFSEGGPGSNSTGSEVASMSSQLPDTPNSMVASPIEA
T6 sequence 2: T1 sequence 1

[5] = (radiolabel, Klenow fill-in), 5' overhang 1 nt at both ends before fill-in

B1: CBRN3(M) (dsDNA)
DNA 1: GATCTCTCCTGCGCGGTTGACTACCCCCGGAT
DNA 2: GATCCGGGGGTAGTCAACCGCGCAGGAGAGAT
Pou4f2 (Brn3b);Isl1 [1]
  binding result: no binding

B2: IRX6(W) (dsDNA)
DNA 1: GTACTACTAATTAATTAATTGCAAACATTTC
DNA 2: GGAAATGTTTGCAATTAATTAATTAGTAGTA
Pou4f2D5;Isl1 [2]; [5]
  binding result: binds

B3: IRX6(M) (dsDNA)
DNA 1: TACTACTGCTTCGTTGCTTGCAAACATTTC
DNA 2: GGAAATGTTTGCAAGCAACGAAGCAGTAGTA
Pou4f2D5;Isl1 [3]; (radiolabel, Klenow fill-in), one end blunt, lower strand 5' overhang 1 nt before fill-in
  binding result: no binding

B4: SBRN3(W) (dsDNA)
DNA 1: GCACACGACCCAATGAATTAATAACCGGGCTG
DNA 2: GCAGCCCGGTTATTAATTCATTGGGTCGTGTG
Isl1D4;Pou4f2 (Brn3b)
  binding result: binds
Pou4f2 (Brn3b);Isl1 [4]
  binding result: binds
Pou4f2D4;Isl1
  binding result: binds
Isl1D5;Pou4f2 (Brn3b)
  binding result: binds
Isl1D3;Pou4f2 (Brn3b)
  binding result: binds
Pou4f2D5;Isl1 [2]; [5]
  binding result: binds

B5: EBF3(M) (dsDNA)
DNA 1: GTGCGTTGCTATTTTCGTTGCTCGGGAAAA
DNA 2: TTTTCCCGAGCAACGAAAATAGCAACGCAC
Pou4f2D5;Isl1 [3]; (radiolabel, Klenow), blunt
  binding result: no binding

B6: EBF3(W) (dsDNA)
DNA 1: GTGCGTTAATATTTTAATTAATCGGGAAAA
DNA 2: TTTTCCCGATTAATTAAAATATTAACGCAC
Pou4f2D5;Isl1 [2]; (radiolabel, Klenow), blunt
  binding result: binds

B7: CBRN3(W) (dsDNA)
DNA 1: GATCTCTCCTGCATAATTAATTACCCCCGGAT
DNA 2: GATCCGGGGGTAATTAATTATGCAGGAGAGAT
Isl1D4;Pou4f2 (Brn3b)
  binding result: binds
Pou4f2 (Brn3b);Isl1 [4]
  binding result: binds
Pou4f2D4;Isl1
  binding result: binds
Isl1D5;Pou4f2 (Brn3b)
  binding result: binds
Isl1D3;Pou4f2 (Brn3b)
  binding result: binds
Pou4f2D5;Isl1 [2]; [5]
  binding result: binds

B8: SBRN3(M) (dsDNA)
DNA 1: GCACACGACCCAGCGCGTTGACAACCGGGCTG
DNA 2: GCAGCCCGGTTGTCAACGCGCTGGGTCGTGTG
Pou4f2 (Brn3b);Isl1 [1]
  binding result: no binding
